# Results from patent US20190142971A1, “FORMULATION AND DELIVERY OF MODIFIED NUCLEOSIDE, NUCLEOTIDE, AND NUCLEIC ACID COMPOSITIONS” (ModernaTX, Inc., priority 2013, published 2019).
# B1: G-CSF: modified mRNA encoding human G-CSF, SEQ ID NO: 4, Cap1, fully modified with 5-methylcytosine and pseudouridine; LNP-formulated in Examples 16-22 (nucleic acid)
# chain: GGGAAAUAAGAGAGAAAAGAAGAGUAAGAAGAAAUAUAAGAGCCACCAUGGCCGGUCCCGCGACCCAAAGCCCCAUGAAACUUAUGGCCCUGCAGUUGCUGCUUUGGCACUCGGCCCUCUGGACAGUCCAAGAAGCGACUCCUCUCGGACCUGCCUCAUCGUUGCCGCAGUCAUUCCUUUUGAAGUGUCUGGAGCAGGUGCGAAAGAUUCAGGGCGAUGGAGCCGCACUCCAAGAGAAGCUCUGCGCGACAUACAAACUUUGCCAUCCCGAGGAGCUCGUACUGCUCGGGCACAGCUUGGGGAUUCCCUGGGCUCCUCUCUCGUCCUGUCCGUCGCAGGCUUUGCAGUUGGCAGGGUGCCUUUCCCAGCUCCACUCCGGUUUGUUCUUGUAUCAGGGACUGCUGCAAGCCCUUGAGGGAAUCUCGCCAGAAUUGGGCCCGACGCUGGACACGUUGCAGCUCGACGUGGCGGAUUUCGCAACAACCAUCUGGCAGCAGAUGGAGGAACUGGGGAUGGCACCCGCGCUGCAGCCCACGCAGGGGGCAAUGCCGGCCUUUGCGUCCGCGUUUCAGCGCAGGGCGGGUGGAGUCCUCGUAGCGAGCCACCUUCAAUCAUUUUUGGAAGUCUCGUACCGGGUGCUGAGACAUCUUGCGCAGCCGUGAAGCGCUGCCUUCUGCGGGGCUUGCCUUCUGGCCAUGCCCUUCUUCUCUCCCUUGCACCUGUACCUCUUGGUCUUUGAAUAAAGCCUGAGUAGGAAG
# modifications: Cap1, 5-methylcytosine, pseudouridine
# Legend:
# Format in all cases: in vivo
# [1] = test system: mice; test: Example 42A: G-CSF/EPO mRNA in buffer IM in mice, serum protein at 13 hours (Table 67); details: IM 100 ug
# Experimental: The mice were bled at 13 hours after the injection to determine the concentration of the human polypeptide in serum in pg/mL (G-CSF groups measured human G-CSF in mouse serum and EPO groups measured human EPO in mouse serum).
# [2] = test system: C57/BL6 mice; test: Example 34: EPO mRNA in buffer IM or SC in mice, serum EPO (Table 60); details: dose 100 μg, 13 hours post injection
# Experimental: Mice were intramuscularly or subcutaneously injected with 50 μl of the modified human EPO mRNA (h-EPO), modified luciferase mRNA (Luc) or the formulation buffer (F.Buffer) as described in the dosing chart Table 60. 13 hours post injection blood was collected and serum was analyzed to determine the amount human EPO for each mouse or rat.
# [3] = test system: Sprague-Dawley rats; test: Example 35: duration after IM EPO mRNA in rats, serum EPO (Table 61); details: rats IM 100 μg, 24, 48 and 72 hour
# Experimental: The rats were bled 2, 6, 12, 24, 48 and 72 hours after the intramuscular injection to determine the concentration of human EPO in serum at a given time.
# [4] = test system: mice; test: Example 65: G-CSF/EPO mRNA in saline in mice, serum protein at 13 hours (Table 97); details: 100 ug, 100 μl/mouse, F. buffer, 13 hours after injection; for Average Protein Product, serum (human G-CSF): G-CSF group
# Experimental: The mice were bled at 13 hours after the injection to determine the concentration of the human polypeptide in serum in pg/mL. (G-CSF groups measured human G-CSF in mouse serum and EPO groups measured human EPO in mouse serum).
# [5] = test system: Sprague-Dawley rats; test: Example 34: EPO mRNA in buffer IM in rats, serum EPO (Table 59); details: dose 100 μg, 13 hours post injection
# [6] = test system: mice; test: Example 19A: LNP IV in mice, serum EPO/G-CSF ELISA (Table 36)
# Experimental: (§1) Formulations, listed in Table 33, were characterized by particle size, zeta potential, and encapsulation.
# LNP formulations, shown in Table 33 (above), were administered to mice (n=4) intravenously (IV) at a single modified mRNA dose 0.05 mg/kg or 0.005 mg/kg. There was also 3 control groups of mice (n=4) that were untreated. The mice were bled at 2 hours, 8 hours, 24 hours, 48 hours and 72 hours after they were administered with G-CSF or EPO modified mRNA formulations to determine the protein expression. Protein expression of G-CSF and EPO were determined using ELISA.
# [7] = test system: mice; test: Example 18: time course LNP IV in mice, serum EPO/G-CSF ELISA (Table 35); details: for EPO / G-CSF Serum Concentration: mice, LNP IV
# Experimental: as §1
# LNP formulations, shown in Table 33 (above), were administered to mice (n=5) intravenously (IV) at a single modified mRNA dose of 0.5, 0.05 or 0.005 mg/kg. The mice were bled at 8 hours, 24 hours, 72 hours and 6 days after they were administered with G-CSF or EPO modified mRNA formulations to determine protein expression using ELISA.
# [8] = test system: non-human primates (cynomolgus monkey); test: Example 22: NHP cytokine interferon-alpha (Table 47)
# Experimental: LNP formulations, shown in Table 33 (above), were administered to non-human primates (NHP) (cynomolgus monkey) (n=2) as intravenous injection (IV). The NHP were administered a single modified mRNA IV dose of 0.5 mg/kg, 0.05 mg/kg or 0.005 mg/kg of G-CSF or EPO in a dose volume of 0.5 mL/kg. The NHPs were bled before dosing with the modified mRNA LNP formulations to determine protein expression in the serum and a baseline complete blood count. After administration with the G-CSF modified mRNA formulation the NHP were bled at 8, 24, 48 and 72 hours to determined protein expression. After administration with the EPO modified mRNA formulation the NHP were bled at 8, 24, 48, 72 hours and 7 days to determined protein expression.
# [9] = test system: rats; test: Example 17: LNP IV, IM, SC in rats, serum EPO/G-CSF ELISA (Table 34); details: for EPO / G-CSF Serum Concentration: LNP 0.05 mg/kg
# Experimental: as §1
# LNP formulations, shown in Table 33 (above), were administered to rats (n=5) intravenously (IV), intramuscularly (IM) or subcutaneously (SC) at a single modified mRNA dose of 0.05 mg/kg. A control group of rats (n=4) was untreated. […] The rats administered EPO modified mRNA intravenously were also bled at 7 days.
# [10] = G-CSF group: human G-CSF in mouse serum
molecule,measurement,setting,value
"Luciferase: luciferase mRNA, SEQ ID NO: 14, Cap1, fully modified with 5-methylcytosine and pseudouridine","Average Protein Product, serum",[1]; EPO group: human EPO in mouse serum,15.0 pg/mL
same,"Average Protein Product, serum",[1]; [10],0.5 pg/mL
same,Average Level in serum (human EPO),[2]; mice IM,0 pg/mL
same,Average Level in serum (human EPO),[2]; mice SC,26.7 pg/mL
same,"human EPO in serum, Avg.",[3],37.2 pg/mL
same,"human EPO in serum, Geometric-mean",[3],29.2 pg/mL
same,"Average Protein Product, serum (human EPO)",[4]; EPO group,26.7 pg/mL
same,"Average Protein Product, serum (human G-CSF)",[4],0 pg/mL
same,"human EPO in serum, Avg.",[5],24.5 pg/mL
same,"human EPO in serum, Geometric-mean",[5],22.4 pg/mL
B1,"Average Protein Product, serum",[1]; [10],19.8 pg/mL
same,EPO / G-CSF Serum Concentration,"[6]; 0.005 mg/kg, 2 hours","3,447.8 pg/ml"
same,EPO / G-CSF Serum Concentration,"[6]; 0.005 mg/kg, 8 hours","11,454.0 pg/ml"
same,EPO / G-CSF Serum Concentration,"[6]; 0.005 mg/kg, 24 hours","4,960.2 pg/ml"
same,EPO / G-CSF Serum Concentration,"[6]; 0.005 mg/kg, 48 hours",686.4 pg/mL
same,EPO / G-CSF Serum Concentration,"[6]; 0.05 mg/kg, 2 hours","20,951.4 pg/ml"
same,EPO / G-CSF Serum Concentration,"[6]; 0.05 mg/kg, 8 hours","70,012.8 pg/ml"
same,EPO / G-CSF Serum Concentration,"[6]; 0.05 mg/kg, 24 hours","19,356.2 pg/ml"
same,EPO / G-CSF Serum Concentration,"[6]; 0.05 mg/kg, 48 hours","1,963.0 pg/ml"
same,EPO / G-CSF Serum Concentration,"[6]; 0.05 mg/kg, 72 hours",47.3 pg/mL
same,protein expression detectable out to,"[7]; mice IV, 0.005 mg/kg and 0.05 mg/kg",72 h
same,EPO / G-CSF Serum Concentration,"[7]; 0.005 mg/kg, 8 hours","11,550.6 pg/ml"
same,EPO / G-CSF Serum Concentration,"[7]; 0.005 mg/kg, 24 hours","5,068.9 pg/ml"
same,EPO / G-CSF Serum Concentration,"[7]; 0.05 mg/kg, 8 hours","462,312.5 pg/ml"
same,EPO / G-CSF Serum Concentration,"[7]; 0.05 mg/kg, 24 hours","80,903.8 pg/ml"
same,EPO / G-CSF Serum Concentration,"[7]; 0.5 mg/kg, 8 hours",">1,250,000 pg/ml"
same,EPO / G-CSF Serum Concentration,"[7]; 0.5 mg/kg, 24 hours","495,812.5 pg/ml"
same,EPO / G-CSF Serum Concentration,"[7]; 0.5 mg/kg, 72 hours","1,325.6 pg/ml"
same,IFN-alpha,"[8]; 0.005 mg/kg, 4 days, Female NHP",0 pg/mL
same,IFN-alpha,"[8]; 0.005 mg/kg, 4 days, Male NHP",0 pg/mL
same,IFN-alpha,"[8]; 0.005 mg/kg, Day 1 + 8 hr, Female NHP",0 pg/mL
same,IFN-alpha,"[8]; 0.005 mg/kg, Day 1 + 8 hr, Male NHP",0 pg/mL
same,IFN-alpha,"[8]; 0.005 mg/kg, Pre-dose, Female NHP",0 pg/mL
same,IFN-alpha,"[8]; 0.005 mg/kg, Pre-dose, Male NHP",0 pg/mL
same,IFN-alpha,"[8]; 0.05 mg/kg, 4 days, Female NHP",0 pg/mL
same,IFN-alpha,"[8]; 0.05 mg/kg, 4 days, Male NHP",0 pg/mL
same,IFN-alpha,"[8]; 0.05 mg/kg, Day 1 + 8 hr, Female NHP",0 pg/mL
same,IFN-alpha,"[8]; 0.05 mg/kg, Day 1 + 8 hr, Male NHP",0 pg/mL
same,IFN-alpha,"[8]; 0.05 mg/kg, Pre-dose, Female NHP",0 pg/mL
same,IFN-alpha,"[8]; 0.05 mg/kg, Pre-dose, Male NHP",0 pg/mL
same,IFN-alpha,"[8]; 0.5 mg/kg, 4 days, Female NHP",0 pg/mL
same,IFN-alpha,"[8]; 0.5 mg/kg, 4 days, Male NHP",0 pg/mL
same,IFN-alpha,"[8]; 0.5 mg/kg, Day 1 + 8 hr, Female NHP",529.2 pg/mL
same,IFN-alpha,"[8]; 0.5 mg/kg, Day 1 + 8 hr, Male NHP",503.8 pg/mL
same,IFN-alpha,"[8]; 0.5 mg/kg, Pre-dose, Female NHP",0 pg/mL
same,IFN-alpha,"[8]; 0.5 mg/kg, Pre-dose, Male NHP",0 pg/mL
same,protein expression detectable out to,[9]; IV,7 days
same,EPO / G-CSF Serum Concentration,"[9]; IM, 2 hours",1620.4 pg/mL
same,EPO / G-CSF Serum Concentration,"[9]; IM, 8 hours",7910.4 pg/mL
same,EPO / G-CSF Serum Concentration,"[9]; IM, 24 hours",893.3 pg/mL
same,EPO / G-CSF Serum Concentration,"[9]; IM, 48 hours",OSC
same,EPO / G-CSF Serum Concentration,"[9]; IM, 5 days",OSC
same,EPO / G-CSF Serum Concentration,"[9]; IV, 2 hours","31,331.9 pg/ml"
same,EPO / G-CSF Serum Concentration,"[9]; IV, 8 hours","70,532.4 pg/ml"
same,EPO / G-CSF Serum Concentration,"[9]; IV, 24 hours","5,738.6 pg/ml"
same,EPO / G-CSF Serum Concentration,"[9]; IV, 48 hours",233.8 pg/mL
same,EPO / G-CSF Serum Concentration,"[9]; IV, 5 days",60.4 pg/mL
same,EPO / G-CSF Serum Concentration,"[9]; SC, 2 hours",80.3 pg/mL
same,EPO / G-CSF Serum Concentration,"[9]; SC, 8 hours",164.2 pg/mL
same,EPO / G-CSF Serum Concentration,"[9]; SC, 24 hours",OSC
same,EPO / G-CSF Serum Concentration,"[9]; SC, 48 hours",OSC
same,EPO / G-CSF Serum Concentration,"[9]; SC, 5 days",OSC
same,protein expression detectable to,[9]; subcutaneous and intramuscular,at least 8 hours
same,"Average Protein Product, serum (human G-CSF)",[4],45 pg/mL
